25 molecules from publication PMC12416549 (2024) can be followed below.

T1: TNFR1 (Homo sapiens, UniProt P19438)
T1 chain: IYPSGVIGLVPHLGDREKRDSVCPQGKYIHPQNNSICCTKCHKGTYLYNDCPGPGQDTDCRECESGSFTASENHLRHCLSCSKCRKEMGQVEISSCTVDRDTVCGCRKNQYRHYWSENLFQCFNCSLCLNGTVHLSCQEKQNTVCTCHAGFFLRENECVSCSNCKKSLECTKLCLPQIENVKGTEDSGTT

B1: E9W (designed binder)
chain: MTLQELLRWEALRRAEAEAFRYALELLAEKFPEQKEYLLDLAEEIESQIRSLSGVDVEDVRKFLDKEWAWVKELLAEHPAELAEVEAARAARLAELRAEVEAKVAA
B2: L12T (designed binder)
chain: MTLQELLREEATRRAEAEAFRYALELLAEKFPEQKEYLLDLAEEIESQIRSLSGVDVEDVRKFLDKEWAWVKELLAEHPAELAEVEAARAARLAELRAEVEAKVAA
B3: A19H (designed binder)
chain: MTLQELLREEALRRAEAEHFRYALELLAEKFPEQKEYLLDLAEEIESQIRSLSGVDVEDVRKFLDKEWAWVKELLAEHPAELAEVEAARAARLAELRAEVEAKVAA
B4: L6D (designed binder)
chain: MTLQEDLREEALRRAEAEAFRYALELLAEKFPEQKEYLLDLAEEIESQIRSLSGVDVEDVRKFLDKEWAWVKELLAEHPAELAEVEAARAARLAELRAEVEAKVAA
B5: P79F (designed binder)
chain: MTLQELLREEALRRAEAEAFRYALELLAEKFPEQKEYLLDLAEEIESQIRSLSGVDVEDVRKFLDKEWAWVKELLAEHFAELAEVEAARAARLAELRAEVEAKVAA
B6: S51E (designed binder)
chain: MTLQELLREEALRRAEAEAFRYALELLAEKFPEQKEYLLDLAEEIESQIRELSGVDVEDVRKFLDKEWAWVKELLAEHPAELAEVEAARAARLAELRAEVEAKVAA
B7: L24T (designed binder)
chain: MTLQELLREEALRRAEAEAFRYATELLAEKFPEQKEYLLDLAEEIESQIRSLSGVDVEDVRKFLDKEWAWVKELLAEHPAELAEVEAARAARLAELRAEVEAKVAA
B8: L41P (designed binder)
chain: MTLQELLREEALRRAEAEAFRYALELLAEKFPEQKEYLLDPAEEIESQIRSLSGVDVEDVRKFLDKEWAWVKELLAEHPAELAEVEAARAARLAELRAEVEAKVAA
B9: E29R (designed binder)
chain: MTLQELLREEALRRAEAEAFRYALELLARKFPEQKEYLLDLAEEIESQIRSLSGVDVEDVRKFLDKEWAWVKELLAEHPAELAEVEAARAARLAELRAEVEAKVAA
B10: A83N (designed binder)
chain: MTLQELLREEALRRAEAEAFRYALELLAEKFPEQKEYLLDLAEEIESQIRSLSGVDVEDVRKFLDKEWAWVKELLAEHPAELNEVEAARAARLAELRAEVEAKVAA
B11: A83R (designed binder)
chain: MTLQELLREEALRRAEAEAFRYALELLAEKFPEQKEYLLDLAEEIESQIRSLSGVDVEDVRKFLDKEWAWVKELLAEHPAELREVEAARAARLAELRAEVEAKVAA
B12: L74K (designed binder)
chain: MTLQELLREEALRRAEAEAFRYALELLAEKFPEQKEYLLDLAEEIESQIRSLSGVDVEDVRKFLDKEWAWVKEKLAEHPAELAEVEAARAARLAELRAEVEAKVAA
B13: A69V (designed binder)
chain: MTLQELLREEALRRAEAEAFRYALELLAEKFPEQKEYLLDLAEEIESQIRSLSGVDVEDVRKFLDKEWVWVKELLAEHPAELAEVEAARAARLAELRAEVEAKVAA
B14: R50Q (designed binder)
chain: MTLQELLREEALRRAEAEAFRYALELLAEKFPEQKEYLLDLAEEIESQIQSLSGVDVEDVRKFLDKEWAWVKELLAEHPAELAEVEAARAARLAELRAEVEAKVAA
B15: L27R (designed binder)
chain: MTLQELLREEALRRAEAEAFRYALELRAEKFPEQKEYLLDLAEEIESQIRSLSGVDVEDVRKFLDKEWAWVKELLAEHPAELAEVEAARAARLAELRAEVEAKVAA
B16: L39V (designed binder)
chain: MTLQELLREEALRRAEAEAFRYALELLAEKFPEQKEYLVDLAEEIESQIRSLSGVDVEDVRKFLDKEWAWVKELLAEHPAELAEVEAARAARLAELRAEVEAKVAA
B17: K72L (designed binder)
chain: MTLQELLREEALRRAEAEAFRYALELLAEKFPEQKEYLLDLAEEIESQIRSLSGVDVEDVRKFLDKEWAWVLELLAEHPAELAEVEAARAARLAELRAEVEAKVAA
B18: R61S (designed binder)
chain: MTLQELLREEALRRAEAEAFRYALELLAEKFPEQKEYLLDLAEEIESQIRSLSGVDVEDVSKFLDKEWAWVKELLAEHPAELAEVEAARAARLAELRAEVEAKVAA
B19: L96N (designed binder)
chain: MTLQELLREEALRRAEAEAFRYALELLAEKFPEQKEYLLDLAEEIESQIRSLSGVDVEDVRKFLDKEWAWVKELLAEHPAELAEVEAARAARLAENRAEVEAKVAA
B20: A94D (designed binder)
chain: MTLQELLREEALRRAEAEAFRYALELLAEKFPEQKEYLLDLAEEIESQIRSLSGVDVEDVRKFLDKEWAWVKELLAEHPAELAEVEAARAARLDELRAEVEAKVAA
B21: P79W (designed binder)
chain: MTLQELLREEALRRAEAEAFRYALELLAEKFPEQKEYLLDLAEEIESQIRSLSGVDVEDVRKFLDKEWAWVKELLAEHWAELAEVEAARAARLAELRAEVEAKVAA
B22: V60D (designed binder)
chain: MTLQELLREEALRRAEAEAFRYALELLAEKFPEQKEYLLDLAEEIESQIRSLSGVDVEDDRKFLDKEWAWVKELLAEHPAELAEVEAARAARLAELRAEVEAKVAA
B23: P79E (designed binder)
chain: MTLQELLREEALRRAEAEAFRYALELLAEKFPEQKEYLLDLAEEIESQIRSLSGVDVEDVRKFLDKEWAWVKELLAEHEAELAEVEAARAARLAELRAEVEAKVAA
B24: L38E (designed binder)
chain: MTLQELLREEALRRAEAEAFRYALELLAEKFPEQKEYELDLAEEIESQIRSLSGVDVEDVRKFLDKEWAWVKELLAEHPAELAEVEAARAARLAELRAEVEAKVAA
B25: A106Q (designed binder)
chain: MTLQELLREEALRRAEAEAFRYALELLAEKFPEQKEYLLDLAEEIESQIRSLSGVDVEDVRKFLDKEWAWVKELLAEHPAELAEVEAARAARLAELRAEVEAKVAQ

The test concerns the target T1, TNFR1. The test can be described thus: yeast display SC50.
For B1, the “apparent Kd (screen)” value came out at 0.405 nM.
Regarding B2, the “apparent Kd (screen)” value stood at 0.718 nM.
In the case of B3, the “apparent Kd (screen)” value was determined as 0.718 nM.
On to B4, for which the “apparent Kd (screen)” value came out at 1.27 nM.
Then B5, with 0.653 nM; and B6, with 2.05 nM; and B7, with 0.446 nM.
For B8, the “apparent Kd (screen)” value came to 1.27 nM.
For B9, the “apparent Kd (screen)” value was 0.49 nM.
Under B10 stands 0.653 nM; under B11, 0.49 nM; under B12, 13.8 nM.
Turning to B13, the “apparent Kd (screen)” value was 0.653 nM.
For the molecule B14, the “apparent Kd (screen)” value worked out at 0.49 nM.
As to B15, the “apparent Kd (screen)” value stood at 0.49 nM.
As for B16, the “apparent Kd (screen)” value was found to be 0.653 nM.
Then B17, with 0.79 nM.
Then B18, with 0.79 nM; and B19, with 0.446 nM; and B20, with 0.593 nM.
As to B21, the “apparent Kd (screen)” value was found to be 0.49 nM.
In the case of B22, the “apparent Kd (screen)” value is 1.05 nM.
On to B23, for which the “apparent Kd (screen)” value came to 0.446 nM.
B24: the “apparent Kd (screen)” value turned out to be 10.4 nM.
Regarding B25, the “apparent Kd (screen)” value came to 0.142 nM.
